Where a chain is given by its changes, count along the chain named. Several values for one entry are separate records, joined by “and”; a condition that tells them apart may be missing. Identical values can stand only once.
T1: recombinant human APRIL (human, UniProt O75888 105-250, limits assumed)
T1 sequence (looked up): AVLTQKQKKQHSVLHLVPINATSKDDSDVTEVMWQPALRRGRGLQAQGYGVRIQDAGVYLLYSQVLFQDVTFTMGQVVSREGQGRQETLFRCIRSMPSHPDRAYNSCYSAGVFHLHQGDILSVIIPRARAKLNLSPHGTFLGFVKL

B1: belimumab (antibody, V domains shown)
VH: QVQLQQSGAEVKKPGSSVRVSCKASGGTFNNNAINWVRQAPGQGLEWMGGIIPMFGTAKYSQNFQGRVAITADESTGTASMELSSLRSEDTAVYYCARSRDLLLFPHHALSPWGRGTMVTVSS
VL: SSELTQDPAVSVALGQTVRVTCQGDSLRSYYASWYQQKPGQAPVLVIYGKNNRPSGIPDRFSGSSSGNTASLTITGAQAEDEADYYCSSRDSSGNHWVFGGGTELTVLG
B2: Telitacicept (label of two rows of Table E29) (Fc fusion, not shown: a dimerising Fc or GST)
chain: SRVDQEERFPQGLWTGVAMRSCPEEQYWDPLLGTCMSCKTICNHQSQRTCAAFCRSLSCRKEQGKFYDHLLRDCISCASICGQHPKQCAYFCENKLRSPVNLPPEL
B3: 20 TACI CRD2-Fc (Fc fusion)
variant TACI domain - linker - Fc fusion chain: SLSCRKEQGKFYDHLLGDCISCASICGQHPKQCAYFCENKLRSGSGGGGSEPKSSDKTHTCPPCPAPEAEGAPSVFLFPPKPKDTLMISRTPEVTCVVVDVSHEDPEVKFNWYVDGVEVHNAKTKPREEQYNSTYRVVSVLTVLHQDWLNGKEYKCKVSNKALPAPIEKTISKAKGQPREPQVYTLPPSRDELTKNQVSLTCLVKGFYPSDIAVEWESNGQPENNYKTTPPVLDSDGSFFLYSKLTVDKSRWQQGNVFSCSVMHEALHNHYTQKSLSLSPG
B4: 31 TACI CRD2-Fc (Fc fusion)
variant TACI domain - linker - Fc fusion chain: B3 variant TACI domain - linker - Fc fusion chain with G17Q, S21N, A34D

Experiments:
[1] = target: recombinant human BAFF (human) (UniProt Q9Y275)
recombinant human APRIL [2] = target: T1, recombinant human APRIL; test: cell-based or functional assay
[3] = target: recombinant human BAFF (human) (UniProt Q9Y275); test: cell-based or functional assay
recombinant human APRIL [4] = target: T1, recombinant human APRIL; test: cell-based or functional assay; remark: listed apart in the source
recombinant human BAFF [5] = target: T2, recombinant human BAFF (human, UniProt Q9Y275 134-285); test: cell-based or functional assay
recombinant human BAFF [6] = target: T2, recombinant human BAFF; test: cell-based or functional assay; remark: listed apart in the source
recombinant human BAFF [7] = target: T2, recombinant human BAFF; test: cell-based or functional assay; remark: listed apart in the source

| Molecule | APRIL IC50 (pM) (recombinant human APRIL [2]) | APRIL IC50 (ΔWT) (fold of WT TACI (68-110)-Fc) (recombinant human APRIL [2]) | BAFF IC50 (pM) [3] | BAFF IC50 (ΔWT) (fold of WT TACI (68-110)-Fc) [3] | further results |
| --- | --- | --- | --- | --- | --- |
| TACI vTD-Fc K77E, R84Q (SEQ ID NO: 24) (Fc fusion) | 4260 | 0.35 | 2260 pM | 1.22 | IC50 (read off the curve): blockade of human BAFF signalling via TACI (NF-κB luciferase reporter, Jurkat/NF-κB/TACI cells) [1]: 0.6 nM |
| TACI vTD-Fc Y102D (SEQ ID NO: 190) (Fc fusion) | 11600 | – | – | – | – |
| TACI vTD-Fc K77E, A101D (SEQ ID NO: 25) (Fc fusion) | 2040 | 0.17 | 1960 pM | 1.06 | IC50 (read off the curve): blockade of human BAFF signalling via TACI (NF-κB luciferase reporter, Jurkat/NF-κB/TACI cells) [1]: 0.6 nM |
| TACI vTD-Fc A101D, Y102D (SEQ ID NO: 189) (Fc fusion) | 33600 | 2.72 | 1950 pM | 1.05 | – |
| TACI vTD-Fc A101D (SEQ ID NO: 23) (Fc fusion) | 8380 | 0.68 | 1830 pM | 0.99 | IC50 (read off the curve): blockade of human BAFF signalling via TACI (NF-κB luciferase reporter, Jurkat/NF-κB/TACI cells) [1]: 0.6 nM |
| TACI vTD-Fc R84Q, A101D (SEQ ID NO: 187) (Fc fusion) | 11200 | 0.91 | 2350 pM | 1.27 | – |
| TACI vTD-Fc K77E, F78Y (SEQ ID NO: 191) (Fc fusion) | 10100 | 0.82 | 1970 pM | 1.06 | – |
| TACI vTD-Fc K77E, Y102D (SEQ ID NO: 192) (Fc fusion) | 891 | 0.07 | 2180 pM | 1.17 | – |
| TACI 13-118-Fc (Fc fusion) | – | – | 7900 pM | 4.26 | IC50 (nM) APRIL (recombinant human APRIL [2]): 7810 nM; IC50 APRIL (Δ TACI 30-110) (fold of TACI 30-110) (recombinant human APRIL [2]): 1.81; IC50 APRIL (Δ TACI 30-110-Fc) (fold of TACI 30-110-Fc) (recombinant human APRIL [2]): 2.37; IC50 (nM) BAFF [3]: 8450 nM; IC50 BAFF (Δ TACI 30-110) (fold of TACI 30-110) [3]: 1.88; IC50 BAFF (Δ TACI 30-110-Fc) (fold of TACI 30-110-Fc) [3]: 1.33 |
| TACI vTD-Fc Q75E, F78Y (SEQ ID NO: 179) (Fc fusion) | 13400 | 1.09 | 1790 pM | 0.97 | – |
| TACI vTD-Fc Q75E (SEQ ID NO: 177) (Fc fusion) | 1940 | 0.16 | 1460 pM | 0.79 | – |
| TACI vTD-Fc F78Y (SEQ ID NO: 183) (Fc fusion) | 176 | 0.01 | 1640 pM | 0.88 | – |
| TACI vTD-Fc F78Y, A101D (SEQ ID NO: 185) (Fc fusion) | 2020 | 0.16 | 1850 pM | 1 | – |
| TACI vTD-Fc Q75E, A101D (SEQ ID NO: 180) (Fc fusion) | 20000 | 1.62 | 2360 pM | 1.27 | – |
| TACI vTD-Fc Q75E, Y102D (SEQ ID NO: 181) (Fc fusion) | 11100 | – | – | – | – |
| BAFF-R ECD (from UniProt Q96RJ3 1-78) (receptor) | – | – | 53200 pM | 28.7 | – |
| TACI vTD-Fc K77E (SEQ ID NO: 32) (Fc fusion) | 159 | 0.01 | 1540 pM | 0.83 | – |
| TACI vTD-Fc R84Q, Y102D (SEQ ID NO: 188) (Fc fusion) | 12300 | 1 | 1860 pM | 1.01 | – |
| TACI vTD-Fc R84Q (SEQ ID NO: 30) (Fc fusion) | 566 | 0.05 | 5490 pM | 2.96 | IC50 (read off the curve): blockade of human BAFF signalling via TACI (NF-κB luciferase reporter, Jurkat/NF-κB/TACI cells) [1]: 1 nM |
| TACI vTD-Fc F78Y, R84Q (SEQ ID NO: 184) (Fc fusion) | 2620 | 0.21 | 2260 pM | 1.22 | – |
| TACI 30-110-Fc (Fc fusion) | – | – | 7740 pM | 4.17 | IC50 (nM) APRIL (recombinant human APRIL [2]): 4320 nM; IC50 APRIL (Δ TACI 30-110) (fold of TACI 30-110) (recombinant human APRIL [2]): 1; IC50 APRIL (Δ TACI 30-110-Fc) (fold of TACI 30-110-Fc) (recombinant human APRIL [2]): 1; IC50 (nM) BAFF [3]: 4490 nM; IC50 BAFF (Δ TACI 30-110) (fold of TACI 30-110) [3]: 1; IC50 BAFF (Δ TACI 30-110-Fc) (fold of TACI 30-110-Fc) [3]: 1 |
| TACI vTD-Fc F78Y, Y102D (SEQ ID NO: 186) (Fc fusion) | 8490 | 0.69 | 1960 pM | 1.06 | – |
| TACI vTD-Fc K77E, F78Y, R84Q (SEQ ID NO: 182) (Fc fusion) | 10100 | 0.82 | 2210 pM | 1.19 | – |
| TACI vTD-Fc Q75E, K77E (SEQ ID NO: 178) (Fc fusion) | 10700 | 0.87 | 1890 pM | 1.02 | – |
| B1 | – | – | – | – | IC50 APRIL (Δ TACI 30-110-Fc) (recombinant human APRIL [4]): 55.8 fold of TACI 30-110-Fc; IC50 BAFF (Δ TACI 30-110-Fc) (recombinant human BAFF [5]): 0.43 fold of TACI 30-110-Fc; BAFF IC50 (pM) (recombinant human BAFF [6]): 2200 pM; BAFF IC50 (ΔWT) (recombinant human BAFF [6]): 1.18 fold of WT TACI (68-110)-Fc |
| B2 | – | – | 9170 pM and 7300 pM | 4.95 and 3.94 | – |
| B3 | – | – | – | – | IC50 (read off the curve): blockade of human BAFF signalling via TACI (NF-κB luciferase reporter, Jurkat/NF-κB/TACI cells) (recombinant human BAFF [7]): ~0.7 nM |
| B4 | – | – | – | – | IC50 (read off the curve): blockade of human BAFF signalling via TACI (NF-κB luciferase reporter, Jurkat/NF-κB/TACI cells) (recombinant human BAFF [7]): ~0.6 nM |

— patent US20250019412A1 (ALPINE IMMUNE SCIENCES, published 2025)
